Here are results for one protein from paper PMC3509593, “Role of Key Residues at the Flavin Mononucleotide (FMN):Adenylyltransferase Catalytic Site of the Bifunctional Riboflavin Kinase/Flavin Adenine Dinucleotide (FAD) Synthetase from Corynebacterium ammoniagenes” (International Journal of Molecular Sciences, 2012).

The series concerns the molecule itself. The series is described as follows: SEC; gel filtration of the purified samples on a HiPrep 26/60 Sephacryl S-200 HR column, used to separate the monomeric fraction. A general note: Size exclusion chromatography separates by hydrodynamic size, large species first.

B1: FAD synthetase from Corynebacterium ammoniagenes (wild type) (enzyme)
chain: MDIWYGTAAVPKDLDNSAVTIGVFDGVHRGHQKLINATVEKAREVGAKAIMVTFDPHPVSVFLPRRAPLGITTLAERFALAESFGIDGVLVIDFTRELSGTSPEKYVEFLLEDTLHASHVVVGANFTFGENAAGTADSLRQICQSRLTVDVIDLLDDEGVRISSTTVREFLSEGDVARANWALGRHFYVTGPVVRGAGRGGKELGFPTANQYFHDTVALPADGVYAGWLTILPTEAPVSGNMEPEVAYAAAISVGTNPTFGDEQRSVESFVLDRDADLYGHDVKVEFVDHVRAMEKFDSVEQLLEVMAKDVQKTRTLLAQDVQAHKMAPETYFLQAES
notes: FAD synthetase (bifunctional RFK/FMNAT) of Corynebacterium ammoniagenes; N-terminal FMNAT-module residues 1-186 and C-terminal RFK-module residues 187-338; also called CaFADS; WT CaFADS; source: gel filtration on Sephacryl S-200 HR
With B1, the binding result is reported as “binds”.
